Assay results from the DeepSol protein solubility set.

Assay: soluble on expression in E. coli; label from the status in PepcDB or PDB records

Sequence | soluble on expression in E. coli
MSLSQLDKTCVIIGASHAGVNCAFALRKEGWQGGIVLYDADPSLPYHRPPLSKAYLTSDAGIEKYLLKSAESYEKDNITLRMGIQVSAIDRTHKILTLNDGNTRSYDKLVIATGARPIIPPTKGIKTAKNLYPLRNAADVQNIRQALESNENKRVVIVGAGYIGLEIAASLKNRGAQVTVLEREDRVLARVTAPEMSAYFQQLHVSQGVEIVTNKNVVSIAPRNGFNTITCSDGTQYDADVIVMGVGIRVNLELAEDAGLNISNGICVNAAGQTNDEDIYAIGDCTLHYNPHYNRHIRLESVQNAVDQAKVTAAAICGKEVAYNAIPWFWSDQYDVKLQIVGLSSGYNELLIRREDDGRKFSSWYFKDDELLAVDAINNAKAYMIATKFIKERRKVDKIKLTDASVALSPLNLSAESHEGHHHHHH | soluble
MGSDKIHHHHHHMPGLPPPAVEPAVTSIKQEDLIQSVADALQYISYYHPVDYIKNLSAAYEREESPAAKDAIAQILINSRMCAEGHRPICQDTGIVTVFLEIGMNVRWDDATMGVEDMVNEGVRRAYNHPDNKLRASVLADPAGKRANTKDNTPAVVSTKIVPGDHLEVIVAAKGGGSEAKSKFAMLNPSDSIVDWVLKTVPTMGAGWCPPGMLGIGIGGTAEKAMLLAKEALMEPIDIVDLQARGASNRAEELRLELYEKVNALGIGAQGLGGLTTVLDIKVKDYPTHAANLPVALIPNCAATRHAHFTLDGSGPVMLDPPSLEDWPKLTYNPTNARRVNLDTITREEVASFKPGEVVLLNGKLLTGRDAAHKRMIDMLNRGETLPVDFTNRFIYYVGPVDPVRDEVVGPAGPTTATRMDKFTRQMLEQTGLLGMVGKSERGDAAIDAIRDNKAVYLMAVGGSAYLVSKAIKAARVLAFEDLGMEAIYEFEVKDMPVTVAVDSTGESVHKTGPRLWQSRIGKIPVVVE | not soluble
MHHHHHHRMKQLEDKVEELLSKNYHLENEVARLRSPPLLVGVVSDILEDGRVVVKSSTGPKFVVNTSQYINEEELKPGARVALNQQTLAIVNVLPTSKDPMVYGFEVEE | soluble
MKNELICYKQMPVWTKDNLPQMFQEKHNTKVGTWGKLTVLKGKLKFYELTENGDVIAEHIFTPESHIPFVEPQAWHRVEALSDDLECTLGFYCKKEDYFSKKYNTTAIHGDVVDAAKIISPCKVLDLGCGQGRNSLYLSLLGYDVTSWDHNENSIAFLNETKEKENLNISTALYDINAANIQENYDFIVSTVVFMFLNRERVPSIIKNMKEHTNVGGYNLIVAAMSTDDVPCPLPFSFTFAENELKEYYKDWEFLEYNENMGELHKTDENGNRIKMKFATMLARKK | soluble
MATTVQLSDQSLRQLETLAIHTAHLIQPHGLVVVLQEPDLTISQISANCTGILGRSPEDLLGRTLGEVFDSFQIDPIQSRLTAGQISSLNPSKLWARVMGDDFVIFDGVFHRNSDGLLVCELEPAYTSDNLPFLGFYHMANAALNRLRQQANLRDFYDVIVEEVRRMTGFDRVMLYRFDENNHGDVIAEDKRDDMEPYLGLHYPESDIPQPARRLFIHNPIRVIPDVYGVAVPLTPAVNPSTNRAVDLTESILRSAYHCHLTYLKNMGVGASLTISLIKDGHLWGLIACHHQTPKVIPFELRKACEFFGRVVFSNISAQEDTETFDYRVQLAEHEAVLLDKMTTAADFVEGLTNHPDRLLGLTGSQGAAICFGEKLILVGETPDEKAVQYLLQWLENREVQDVFFTSSLSQIYPDAVNFKSVASGLLAIPIARHNFLLWFRPEVLQTVNWGGDPNHAYEATQEDGKIELHPRQSFDLWKEIVRLQSLPWQSVEIQSALALKKAIVNLILRQAEEHHHHHH | soluble
NLLDDAVKRISEDPPCKCPTKFCVERLSQGRYRVGEKILFIRMLHNKHVMVRVGGGWETFAGYLLKHDPCRMLQISRVDGKTSP | soluble
TDAFFFAGFLPNAAAARKTRLETLRGVPGTLVFYESPKRLAASLRDMAEVLGGERPAALCRELTKKFEETRRDTLAGLAEALAEAPVKGEVVLLVDRARSG | not soluble
MQLKGKTAIVTGSSRGLGKAIAWKLGNMGANIVLNGSPASTSLDATAEEFKAAGINVVVAKGDVKNPEDVENMVKTAMDAFGRIDILVNNAGITRDTLMLKMSEKDWDDVLNTNLKSAYLCTKAVSKIMLKQKSGKIINITSIAGIIGNAGQANYAASKAGLIGFTKSIAKEFAAKGIYCNAVAPGIIKTDMTDVLPDKVKEMYLNNIPLKRFGTPEEVANVVGFLASDDSNYITGQVINIDGGLVM | soluble
MSFEYNEKVLDHFLNPRNVGVLEDANGVGQCGNPACGDAMLFTIKVNPENDVIEDVRFKTFGCGSAIAVSSMLTEMVKGKPIQYALNLTYKDIFEELGGLPPQKIHCTNLGLETLHVAIKDYLMKQGRVEEASKIPDCYEEEEEQEESKEFEFLSGTLEHHHHHH | soluble
MDDPFASLEPLAVAPSGPEGVRAQFDQMEDIPPPRPRQPPPAQEDPVEIEVTEDGVARAFTEKYGGTLRFDHDAGRWYHWQEDHWQADTTSRAFEYCRRLARLASEGAKHSLLSTARKASFAGGVERLARADPAHAVTQEAWDRDPWLVACPGETVDLRTGRSAVPRPEDGITRRVAVAPAAQETCPTWWQFLEDATGADSSVMRFLQQWAGYSLTGITREHTLVFLYGDGGNGKSVFINTLTGLLGDYAATAGMETFTASKSDRHPTDLAMLAGARLVAASETEEGRAWAESRIKQMTGGDRITARFMRRDFFTYTPQFKLTLVGNHRPALANVKPVEPWALVVPAELETVAQQVLAEIAAAAVSDVNPFSGTLELIVEPGLTSATGWYLIGNPALHDGLAHAFLDGQSAPRIETRAGWNTLGMEFRLTWAVDAKFIGTASWFRNPGASGCPRCRPRNAQRQGVALLCLARRSEVLDRLEHHHHHH | not soluble
MGSDKIHHHHHHMKNVIKFYEKGSIEILYGKSSHSFPLHSHECFCVGAITKGSALFTINNTKCLLEESMVFIIPPNTGISITANSQYDYITICFKNELKKQVEHILFNKFFLKIKSNDEIFNLCDIFKENNNEKQLLNSILILINSTIATNSLVMETSTNNTVLLICEYIKQTAAKNFSLDTLAESFYLSKYHLIRMFKKEMGVTPYQYYIQAKMGIIRRQIFNGKSETDLAINLNLSDSSHLCKIFKRQMGISIQAYKKNLIRK | not soluble
